Experiments:
[1] = tested on: SVPs from patient ID1 (HBV GtD); experiment: Binding of nanodisc-reconstituted NTCP-eYFP to SVPs of patient ID1 (GtD); settings: 25–100 nM
Protocol: (§1) The lipids were then mixed with detergent-purified NTCP and incubated at room temperature for 5 min with gentle agitation. Next, membrane scaffold protein (MSP1D1) was added to the mixture and incubated for 20 min at room temperature. […] Bio-Beads were removed by passing through a gravity column (Bio-Rad), and the mixture was briefly spun at 4000 × g at 4 °C to remove excess lipids. […] Peak fractions containing nanodisc-reconstituted NTCP were collected and concentrated.
(§2) Subviral particles (SVPs) were isolated from plasma of two chronic HBV-infected patients by three consecutive ultracentrifugation steps according to published protocols[13]. Briefly, SVP were separated from virions using rate zonal ultracentrifugation through a sucrose density gradient. SVP-containing fractions were pooled and further purified using caesium chloride (CsCl) flotation ultracentrifugation. Pooled SVP-fractions were further purified using a second sucrose density gradient and concentrated by ultrafiltration. […] For fluorescence measurement, 100 μL HBS buffer was added to each well and the fluorescence intensity of eYFP was detected at 485 nm excitation and 535 nm emission on a fluorescence microplate reader (TECAN Life Sciences).

[2] = tested on: SVPs from patient K826 (HBV GtA); experiment: Binding of nanodisc-reconstituted NTCP-eYFP to SVPs of patient K826 (GtA); settings: 25–100 nM
Protocol: as §1, §2

B1: NTCP G158R: nanodisc-reconstituted NTCP-eYFP variant carrying the mutation G158R (protein)
chain: MEAHNASAPFNFTLPPNFGKRPTDLALSVILVFMLFFIMLSLGCTMEFSKIKAHLWKPKGLAIALVAQYGIMPLTAFVLGKVFRLKNIEALAILVCGCSPGGNLSNVFSLAMKGDMNLSIVMTTCSTFCALGMMPLLLYIYSRGIYDGDLKDKVPYKRIVISLVLVLIPCTIGIVLKSKRPQYMRYVIKGGMIIILLCSVAVTVLSAINVGKSIMFAMTPLLIATSSLMPFIGFLLGYVLSALFCLNGRCRRTVSMETGCQNVQLCSTILNVAFPPEVIGPLFFFPLLYMIFQLGEGLLLIAIFWCYEKFKTPKDKTKMIYTAATTEETIPGALGNGTYKGEDCSPCTA
modifications: left off: eYFP, C-terminal, kept | rho-1D4, C-terminal, state not stated
- binding to GtD SVPs (in words) [1]: abolished binding to the SVPs
- binding to GtA SVPs (in words) [2]: abolished binding to the SVPs
